Assay results reported in patent US20150140573A1.

B1: barley limit dextrinase present in barley malt extract (protein)
chain: MAVGETGASVSAAEAEAEATQAFMPDARAYWVTSDLIAWNVGELEAQSVCLYASRAAAMSLSPSNGGIQGYDSKVELQPESAGLPETVTQKFPFISSYRAFKVPSSVDVASLVKCQLVVASFGADGKHVDVTGLQLPGVLDDMFAYTGPLGAVFSEDSVSLHLWAPTAQGVSVCFFDGPAGPALETVQLKESNGVWSVTGPREWENRYYLYEVDVYHPTKAQVLKCLAGDPYARSLSANGARTWLVDINNETLKPASWDELADEKPKLDSFSDITIYELHIRDFSAHDGTVDSDSRGGFRAFAYQASAGMEHLRKLSDAGLTHVHLLPSFHFAGVDDIKSNWKFVDECELATFPPGSDMQQAAVVAIQEEDPYNWGYNPVLWGVPKGSYASDPDGPSRIIEYRQMVQALNRIGLRVVMDVVYNHLDSSGPCGISSVLDKIVPGYYVRRDTNGQIENSAAMNNTASEHFMVDRLIVDDLLNWAVNYKVDGFRFDLMGHIMKRTMVTKSALQSLTTDAHGVDGSKIYLYGEGWDFAEVARNQRGINGSQLNMSGTGIGSFNDRIRDAINGGNPFGNPLQQGFNTGLFLEPNGFYQGNEADTRRSLATYADQIQIGLAGNLRDYVLISHTGEAKKGSEIHTFDGLPVGYTASPIETINYVSAHDNETLFDVISVKTPMILSVDERCRINHLASSMMALSQGIPFFHAGDEILRSKSIDRDSYNSGDWFNKLDFTYETNNWGVGLPPSEKNEDNWPLMKPRLENPSFKPAKGHILAALDSFVDILKIRYSSPLFRLSTANDIKQRVRFHNTGPSLVPGVIVMGIEDARGESPEMAQLDTNFSYVVTVFNVCPHEVSMDIPALASMGFELHPVQVNSSDTLVRKSAYEAATGRFTVPGRTVSVFVEPRC

What was measured:
[1] = biological target: barley limit dextrinase present in barley malt extract (barley (Hordeum vulgare subsp. vulgare)); assay: cell-based or functional assay; conditions: scale: fraction of the rate of the uninhibited sample
[2] = biological target: recombinant barley limit dextrinase inhibitor

Row | Molecule | rate of o-NP release from compound 6 in barley malt extract (absorbance at 430 nm), with and without added limit dextrinase inhibitor [1] | hydrolysis of compound 19 in barley malt extract after 1 h at 60 C (UPLC, fluorescence detection), with and without added LDI [2]
1 | recombinant barley limit dextrinase inhibitor | 0.1 | 
2 | B1 |  | When LDI was added to the extract, almost all activity of limit dextrinase was inhibited, and only negligible amounts of the compound 19 was hydrolyzed
